We go through one substance from PMC2592534.

Among the targets are rat ficolin-A O54A (rat) (UniProt Q9WTS8); rat ficolin-A P59A (rat) (UniProt Q9WTS8); rat ficolin-A M57E (rat); rat ficolin-A M57S (rat).
Common to all, as to test: SPR
(SPR reads the build-up and loss of mass on a sensor chip optically.)

rat MASP-2A (catalytically inactive MBL-associated serine protease-2, Ser613 to Ala), sequence (Q9JJS8 20-685 S632A): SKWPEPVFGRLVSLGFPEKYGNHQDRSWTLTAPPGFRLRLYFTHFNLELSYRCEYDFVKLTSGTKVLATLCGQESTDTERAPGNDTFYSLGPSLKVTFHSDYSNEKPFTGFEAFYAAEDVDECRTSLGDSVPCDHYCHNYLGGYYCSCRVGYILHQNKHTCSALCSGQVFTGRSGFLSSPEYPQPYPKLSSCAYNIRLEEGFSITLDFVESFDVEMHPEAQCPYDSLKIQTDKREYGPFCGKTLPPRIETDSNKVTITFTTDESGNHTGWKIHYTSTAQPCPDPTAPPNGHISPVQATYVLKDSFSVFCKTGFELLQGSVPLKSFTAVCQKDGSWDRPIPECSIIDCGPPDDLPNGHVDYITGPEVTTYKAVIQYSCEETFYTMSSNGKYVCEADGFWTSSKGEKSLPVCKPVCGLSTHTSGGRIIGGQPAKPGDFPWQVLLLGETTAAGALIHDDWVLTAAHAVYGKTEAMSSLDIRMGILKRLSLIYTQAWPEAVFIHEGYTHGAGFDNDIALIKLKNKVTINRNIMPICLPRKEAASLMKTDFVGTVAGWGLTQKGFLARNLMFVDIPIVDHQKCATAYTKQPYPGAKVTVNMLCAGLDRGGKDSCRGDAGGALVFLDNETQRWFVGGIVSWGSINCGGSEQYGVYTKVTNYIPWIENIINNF
rat ficolin-A P59A (rat), sequence (Q9WTS8 18-335 P76A): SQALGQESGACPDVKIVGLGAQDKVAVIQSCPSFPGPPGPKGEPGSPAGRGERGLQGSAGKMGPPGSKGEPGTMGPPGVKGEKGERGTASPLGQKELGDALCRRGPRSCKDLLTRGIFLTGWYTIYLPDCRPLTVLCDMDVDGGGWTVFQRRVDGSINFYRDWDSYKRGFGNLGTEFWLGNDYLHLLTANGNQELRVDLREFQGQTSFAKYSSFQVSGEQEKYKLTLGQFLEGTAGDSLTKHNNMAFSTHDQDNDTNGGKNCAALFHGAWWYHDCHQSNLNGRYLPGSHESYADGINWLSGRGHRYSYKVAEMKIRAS
rat ficolin-A O54A (rat), sequence (Q9WTS8 18-335 P54A): as the sequence (Q9WTS8 18-335 P76A) above, with P37A, A59P counted along it

For “rat MASP-2A (catalytically inactive MBL-associated serine protease-2, Ser613 to Ala) (from UniProt Q9JJS8 20-685) (enzyme)”, the KD2 (apparent, two-complex, parallel reaction model) with rat ficolin-A O54A (rat) was 153 nM. Also, in the test with rat ficolin-A P59A (rat), the KD1 (apparent, two-complex, parallel reaction model) amounted to 6.8 nM; the KD2 (apparent, two-complex, parallel reaction model) was 253 nM; the kon of complex 1 (two-complex, parallel reaction model) came out at 1.13e+06 M⁻¹ s⁻¹; the kon of complex 2 (two-complex, parallel reaction model) was 42000 M⁻¹ s⁻¹. Besides, in the test with rat ficolin-A M57E (rat), the KD1 (apparent, two-complex, parallel reaction model) came out at 49 nM; the KD2 (apparent, two-complex, parallel reaction model) was 3.23 µM; the koff of complex 2 (two-complex, parallel reaction model) was determined as 0.0094 s⁻¹. In the test with rat ficolin-A M57S (rat), the KD1 (apparent, two-complex, parallel reaction model) was 11.6 nM; the KD2 (apparent, two-complex, parallel reaction model) amounted to 133 nM; the koff of complex 2 (two-complex, parallel reaction model) is 0.0048 s⁻¹; the kon of complex 1 (two-complex, parallel reaction model) was found to be 410000 M⁻¹ s⁻¹. In addition, in the test with rat ficolin-A M57S (rat), the kon of complex 2 (two-complex, parallel reaction model) was 37000 M⁻¹ s⁻¹.
